In the RNAGym collection of RNA variant scans (doi:10.7554/elife.80360):

B1: Twister Ribozyme (parent)
chain: AACACUGCCAAUGCCGGUCCCAAGCCCGGAUAAAAGUGGAGGGGGCGG

Variants of: B1
Assay: self-cleavage, relative activity (ratio to wild type); higher = more cleavage; co-transcriptional
For AACACUGCCAAGGCCGGUCCCAAGCCCGUAUAAAAGUGGAGGGGGCGG [U12G G29U], the self-cleavage was 0.823. Variant AACACUGCCAACGCCGGUCCCAAGCCCGGUUAAAAGUGGAGGGGGCGG [U12C A30U] has a self-cleavage of 1.04. AACACUGCCAACGCCGGUCCCAAGCCCGGGUAAAAGUGGAGGGGGCGG [U12C A30G] showed a self-cleavage of 0.712. AACACUGCCAAGGCCGGUCCCAAGCCCGGAUAAGAGUGGAGGGGGCGG [U12G A34G] showed a self-cleavage of 0.608. In the case of AACACUGCCAAGGCCGGUCCCAAGCCCGGAUAAUAGUGGAGGGGGCGG [U12G A34U], the self-cleavage is reported as 0.701. AACACUGCCAAAGCCGGUCCCAAGCCCGGAUAAAAGUGGAUGGGGCGG [U12A G41U] gave a self-cleavage of 0.772. AACACUGCCAAAGCCGGUCCCAAGCCCGGAUAAAACUGGAGGGGGCGG [U12A G36C] gave a self-cleavage of 0.693. In the case of AACACUGCCAAGGCCGGUCCCAAGACCGGAUAAAAGUGGAGGGGGCGG [U12G C25A], the self-cleavage is reported as 0.256. AACACUGCCAAGGCCGGUCCCAAGUCCGGAUAAAAGUGGAGGGGGCGG [U12G C25U] gave a self-cleavage of 0.675. With AACACUGCCAAGGCCCGUCCCAAGCCCGGAUAAAAGUGGAGGGGGCGG [U12G G16C] the self-cleavage was 0.753. Work on AACACUGCCAACGCCGGUCCCAAGCCCGGAUAAAAGUGGACGGGGCGG [U12C G41C] yielded a self-cleavage of 0.264. With AACACUGCCAACGCCGGUCCCAAGCCCGGAUAAAAGUGGAAGGGGCGG [U12C G41A] the self-cleavage was 0.577. With AACACUGCCAACGCCGGUCCCAAACCCGGAUAAAAGUGGAGGGGGCGG [U12C G24A] the self-cleavage was 0.0718. In the case of AACACUGCCAACGCCGGUCCAAAGCCCGGAUAAAAGUGGAGGGGGCGG [U12C C21A], the self-cleavage is reported as 0.124. AACACUGCCAACGCCGGUCCCAAGCGCGGAUAAAAGUGGAGGGGGCGG [U12C C26G] showed a self-cleavage of 0.179. Work on AACACUGCCAACGCCGGUCCCACGCCCGGAUAAAAGUGGAGGGGGCGG [U12C A23C] yielded a self-cleavage of 0.234. With AACACUGCCAACGCCGGUCCCAUGCCCGGAUAAAAGUGGAGGGGGCGG [U12C A23U] the self-cleavage was 0.554. In the case of AACACUGCCAAAGCCGGUCCCAAGCCCGGAGAAAAGUGGAGGGGGCGG [U12A U31G], the self-cleavage is reported as 0.961. AACACUGCCAAAGCCGGUCCCAAGCCCGGAAAAAAGUGGAGGGGGCGG [U12A U31A] gave a self-cleavage of 0.679. Variant AACACUGCCAAAGCCGGUCCCAAGCCCGGACAAAAGUGGAGGGGGCGG [U12A U31C] has a self-cleavage of 1.13. For AACACUGCCAAGGCCGGUCCCAAGCCCGGAUAAAAGUAGAGGGGGCGG [U12G G38A], the self-cleavage was 0.771. Work on AACACUGCCAAAGCCGCUCCCAAGCCCGGAUAAAAGUGGAGGGGGCGG [U12A G17C] yielded a self-cleavage of 0.114. In the case of AACACUGCCAACGCCGGUCCCAAGCCCGGAUAAAAGUGGAGGGGGCAG [U12C G47A], the self-cleavage is reported as 0.785. AACACUGCCAAGGCCGGUCCCAAGCCCGGAUACAAGUGGAGGGGGCGG [U12G A33C] showed a self-cleavage of 0.685. Variant AACACUGCCAAAGCCGGUCCCAAGCCCGGAUAAAAGUGGAGGGGGCCG [U12A G47C] has a self-cleavage of 0.751. AACACUGCCAAGGCCGAUCCCAAGCCCGGAUAAAAGUGGAGGGGGCGG [U12G G17A] showed a self-cleavage of 0.577. Variant AACACUGCCAAGGCCGCUCCCAAGCCCGGAUAAAAGUGGAGGGGGCGG [U12G G17C] has a self-cleavage of 0.0934. In the case of AACACUGCCAAGGCCGGUCCCAAGCCCGGAUAAAAGUGGAGGGGGUGG [U12G C46U], the self-cleavage is reported as 0.866. Variant AACACUGCCAAGGCCGGUCCCAAGCCCGGAUAAAAGUGGAGGGGGAGG [U12G C46A] has a self-cleavage of 0.706. AACACUGCCAACGCCGGUCCCAAGCCCGGAUAAAAAUGGAGGGGGCGG [U12C G36A] gave a self-cleavage of 0.679. Work on AACACUGCCAACGCCCGUCCCAAGCCCGGAUAAAAGUGGAGGGGGCGG [U12C G16C] yielded a self-cleavage of 0.482. AACACUGCCAACGCCGGGCCCAAGCCCGGAUAAAAGUGGAGGGGGCGG [U12C U18G] showed a self-cleavage of 0.0285. Variant AACACUGCCAACGCCGGUCCCAAGCCCGGAUAAAAGUGGAGGGCGCGG [U12C G44C] has a self-cleavage of 0.932. With AACACUGCCAAGGCCGGUCCCAAGCCCGGAUAAAAGUGGAAGGGGCGG [U12G G41A] the self-cleavage was 0.658. In the case of AACACUGCCAACGCCGGUCCCAAGCCCGGAUAAAAGCGGAGGGGGCGG [U12C U37C], the self-cleavage is reported as 0.624. Variant AACACUGCCAAGGCCGGUCCCAAGCCCGGAUAAACGUGGAGGGGGCGG [U12G A35C] has a self-cleavage of 0.89. Work on AACACUGCCAAGGCCGGUCCCAAGCCCGGAUAAAUGUGGAGGGGGCGG [U12G A35U] yielded a self-cleavage of 0.848. Variant AACACUGCCAACGCCGGUCCCAAGCCCGGAUAAAAGUGGAGGCGGCGG [U12C G43C] has a self-cleavage of 0.145. In the case of AACACUGCCAACGCCGGUCCCAAGCCUGGAUAAAAGUGGAGGGGGCGG [U12C C27U], the self-cleavage is reported as 0.951. AACACUGCCAACGCCGGUCCCAAGCCCGGAGAAAAGUGGAGGGGGCGG [U12C U31G] showed a self-cleavage of 0.954. For AACACUGCCAACGCCGGUCCCAAGCCCGGAAAAAAGUGGAGGGGGCGG [U12C U31A], the self-cleavage was 0.78. For AACACUGCCAAGGCCGGUCCCAAGCGCGGAUAAAAGUGGAGGGGGCGG [U12G C26G], the self-cleavage was 0.451. Work on AACACUGCCAAGGCCGGUCCCAAGCUCGGAUAAAAGUGGAGGGGGCGG [U12G C26U] yielded a self-cleavage of 0.407. With AACACUGCCAACGCCGGUCCCAAGCCCGGAUAAAAGUGGAGGGGGAGG [U12C C46A] the self-cleavage was 0.903. In the case of AACACUGCCAACGCCGGUCCCAAGCCCGGAUAAAAGUGGAGGGGGGGG [U12C C46G], the self-cleavage is reported as 0.705. With AACACUGCCAAAGCCGGUCCCAAGCCCGGAUAAAAGUGGAGGCGGCGG [U12A G43C] the self-cleavage was 0.255. With AACACUGCCAAGGCCGGUCCCAAUCCCGGAUAAAAGUGGAGGGGGCGG [U12G G24U] the self-cleavage was 0.167. AACACUGCCAAGGCCGGUCGCAAGCCCGGAUAAAAGUGGAGGGGGCGG [U12G C20G] showed a self-cleavage of 0.249. AACACUGCCAAGGCCGGUCUCAAGCCCGGAUAAAAGUGGAGGGGGCGG [U12G C20U] showed a self-cleavage of 0.725. AACACUGCCAAGGCUGGUCCCAAGCCCGGAUAAAAGUGGAGGGGGCGG [U12G C15U] gave a self-cleavage of 0.649. Variant AACACUGCCAACGUCGGUCCCAAGCCCGGAUAAAAGUGGAGGGGGCGG [U12C C14U] has a self-cleavage of 1.06. AACACUGCCAAGGCCGGUCCCAAGCCCGGAUAAAAGUGAAGGGGGCGG [U12G G39A] showed a self-cleavage of 0.477. AACACUGCCAAGGCCGGUCCCAAGCCCGGAUAAAAGUGCAGGGGGCGG [U12G G39C] gave a self-cleavage of 0.137. AACACUGCCAAGGCCGGUCCCAAGCCCGGAUAAAAGUGUAGGGGGCGG [U12G G39U] gave a self-cleavage of 0.247.
